Tests used:
Format in all cases: cell-based
[1] = test system: RAJI cells; test: JNG assay, co-culture with RAJI cells; details: JNG cells expressing construct, co-culture with Raji
Outline: (§1)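 Jurkat NFAT-GFP (JNG) cells stably transduced with SARs by lentivirus, with drug selection where the construct carried a resistance gene, then co-cultured with target cells at E:T ~1:2 for ~4–18 h. % GFP-positive cells measured by FACS against parental JNG; +/- to 5+ correspond to ~5–50% GFP-positive.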

[2] = test system: Nalm6 cells; test: JNG assay, co-culture with Nalm6 cells; details: co-culture with Nalm6
Outline: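 Scoring uses % GFP+ reporter cells above the parental control, where +/-, +, 2+, 3+, 4+ and 5+ correspond to about 5, 10, 20, 30, 40 and 50%. Effectors were SAR-expressing Jurkat NFAT-GFP cells cocultured with targets (E:T ~1:2, ~4–18 h).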

[3] = test system: L363 cells; test: JNG assay, co-culture with L363 cells; details: co-culture with L363
Outline: as §1

B1: 22046 (protein)
chain: MALPVTALLLPLALLLHAARPQLQLQESGPGLVKPSETLSLTCTVSGDSISSGDYYWGWIRQPPGKGLEWIGHIYYSGVTYYNPSLKSRVTISVDTSRNQFSLKLSSVTAADTAVYYCTREDSSNWRSRGQGTLVTVSSLESGGGGSFEEVQLLESGGGLVQPGGSLRLSCAASGFTFSSYAMSWVRQAPGKGLEWVSSISGSGDYIYYADSVKGRFTISRDISKNTLYLQMNSLRAEDTAVYYCAKEGTGANSSLADYRGQGTLVTVSSTRDKTHTCPPCPAIPEDTFFPSPESSCDVKLVEKSFETDTNLNFQNLSVIGFRILLLKVAGFNLLMTLRLWSSRAKRSGSGVKQTLNFDLLKLAGDVESNPGPSRGHMTEYKPTVRLATRDDVPRAVRTLAAAFADYPATRHTVDPDRHIERVTELQELFLTRVGLDIGKVWVADDGAAVAVWTTPESVEAGAVFAEIGPRMAELSGSRLAAQQQMEGLLAPHRPKEPAWFLATVGVSPDHQGKGLGSAVVLPGVEAAERAGVPAFLETSAPRNLPFYERLGFTVTADVEVPEGPRTWCMTRKPGA
NFAT-GFP ASSAY: Raji [1]: 2+ (refer to approximately 5%, 10%, 20%, 30%, 40% and 50% GFP positive cells)
NFAT-GFP ASSAY: Nalm6 [2]: +/- (refer to approximately 5%, 10%, 20%, 30%, 40% and 50% GFP positive cells)
NFAT-GFP ASSAY: L363 [3]: + (refer to approximately 5%, 10%, 20%, 30%, 40% and 50% GFP positive cells)

B2: 22060 (protein)
chain: MALPVTALLLPLALLLHAARPQLQLQESGPGLVKPSETLSLTCTVSGDSISSGDYYWGWIRQPPGKGLEWIGHIYYSGVTYYNPSLKSRVTISVDTSRNQFSLKLSSVTAADTAVYYCTREDSSNWRSRGQGTLVTVSSLEGSGGGGSGGGGSGEDLKNVFPPEVAVFEPSEAEISHTQKATLVCLATGFYPDHVELSWWVNGKEVHSGVCTDPQPLKEQPALNDSRYCLSSRLRVSATFWQNPRNHFRCQVQFYGLSENDEWTQDRAKPVTQIVSAEAWGRADCGFTSESYQQGVLSATILYEILLGKATLYAVLVSALVLMAMVKRKDSRGRAKRSGSGATNFSLLKQAGDVEENPGPTSMDWIWRILFLVGAATGAHSFEVQLLESGGGLIQPGGSLRLSCAASGFTFSSHAMTWVRQAPGKGLEWVSAISGSGDYTHYADSVKGRFTISRDNSKNTVYLQMNSLRAEDSAVYYCAKDEDGGSLLGHRGQGTLVTVSSTRIQNPDPAVYQLRDSKSSDKSVCLFTDFDSQTNVSQSKDSDVYITDKCVLDMRSMDFKSNSAVAWSNKSDFACANAFNNSIIPEDTFFPSPESSCDVKLVEKSFETDTNLNFQNLSVIGFRILLLKVAGFNLLMTLRLWSSRAKRSGSGVKQTLNFDLLKLAGDVESNPGPSRGHMTEYKPTVRLATRDDVPRAVRTLAAAFADYPATRHTVDPDRHIERVTELQELFLTRVGLDIGKVWVADDGAAVAVWTTPESVEAGAVFAEIGPRMAELSGSRLAAQQQMEGLLAPHRPKEPAWFLATVGVSPDHQGKGLGSAVVLPGVEAAERAGVPAFLETSAPRNLPFYERLGFTVTADVEVPEGPRTWCMTRKPGA
NFAT-GFP ASSAY: Raji [1]: 2+ (refer to approximately 5%, 10%, 20%, 30%, 40% and 50% GFP positive cells)
NFAT-GFP ASSAY: Nalm6 [2]: +/- (refer to approximately 5%, 10%, 20%, 30%, 40% and 50% GFP positive cells)
NFAT-GFP ASSAY: L363 [3]: 2+ (refer to approximately 5%, 10%, 20%, 30%, 40% and 50% GFP positive cells)

B3: 22049 (protein)
chain: MALPVTALLLPLALLLHAARPQLQLQESGPGLVKPSETLSLTCTVSGDSISSGDYYWGWIRQPPGKGLEWIGHIYYSGVTYYNPSLKSRVTISVDTSRNQFSLKLSSVTAADTAVYYCTREDSSNWRSRGQGTLVTVSSLEGQPKANPTVTLFPPSSEELQANKATLVCLISDFYPGAVTVAWKADGSPVKAGVETTKPSKQSNNKYAASSYLSLTPEQWKSHRSYSCQVTHEGSTVEKTVAPTECSPIKTDVITMDPKDNCSKDANDTLLLQLTNTSAYYMYLLLLLKSVVYFAIITCCLLRRTAFCCNGEKSRAKRSGSGATNFSLLKQAGDVEENPGPTSMDWIWRILFLVGAATGAHSFEVQLLESGGGLIQPGGSLRLSCAASGFTFSSHAMTWVRQAPGKGLEWVSAISGSGDYTHYADSVKGRFTISRDNSKNTVYLQMNSLRAEDSAVYYCAKDEDGGSLLGHRGQGTLVTVSSTRASTKGPSVFPLAPSSKSTSGGTAALGCLVKDYFPEPVTVSWNSGALTSGVHTFPAVLQSSGLYSLSSVVTVPSSSLGTQTYICNVNHKPSNTKVDKRVEPKSCEVKTDSTDHVKPKETENTKQPSKSCHKPKAIVHTEKVNMMSLTVLGLRMLFAKTVAVNFLLTAKLFFLRAKRSGSGVKQTLNFDLLKLAGDVESNPGPSRGHMTEYKPTVRLATRDDVPRAVRTLAAAFADYPATRHTVDPDRHIERVTELQELFLTRVGLDIGKVWVADDGAAVAVWTTPESVEAGAVFAEIGPRMAELSGSRLAAQQQMEGLLAPHRPKEPAWFLATVGVSPDHQGKGLGSAVVLPGVEAAERAGVPAFLETSAPRNLPFYERLGFTVTADVEVPEGPRTWCMTRKPGA
NFAT-GFP ASSAY: Nalm6 [2]: +/- (refer to approximately 5%, 10%, 20%, 30%, 40% and 50% GFP positive cells)
NFAT-GFP ASSAY: L363 [3]: +/- (refer to approximately 5%, 10%, 20%, 30%, 40% and 50% GFP positive cells)

B4: 22019 (protein)
chain: MALPVTALLLPLALLLHAARPLEGKPIPNPLLGLDSTGSGEDLKNVFPPEVAVFEPSKAEIAHTQKATLVCLATGFYPDHVELSWWVNGKEVHSGVCTDPQPLKEQPALNDSRYCLSSRLRVSATFWQNPRNHFRCQVQFYGLSENDEWTQDRAKPVTQIVSAEAWGRADCGITSASYHQGVLSATILYEILLGKATLYAVLVSALVLMAMVKRKDSRGRAKRSGSGATNFSLLKQAGDVEENPGPTSTMALPVTALLLPLALLLHAARPQLQLQESGPGLVKPSETLSLTCTVSGDSISSGDYYWGWIRQPPGKGLEWIGHIYYSGVTYYNPSLKSRVTISVDTSRNQFSLKLSSVTAADTAVYYCTREDSSNWRSRGQGTLVTVSSLESGGGGSFEVQLLESGGGLIQPGGSLRLSCAASGFTFSSHAMTWVRQAPGKGLEWVSAISGSGDYTHYADSVKGRFTISRDNSKNTVYLQMNSLRAEDSAVYYCAKDEDGGSLLGHRGQGTLVTVSSTREQKLISEEDGSGIQNPDPAVYQLRDSKSSDKSVCLFTDFDSQTNVSQSKDSDVYITDKCVLDMRSMDFKSNSAVAWSNKSDFACANAFNNSIIPEDTFFPSSDVPCDVKLVEKSFETDTNLNFQNLSVIGFRILLLKVAGFNLLMTLRLWSSRAKRSGSGVKQTLNFDLLKLAGDVESNPGPSRGHMTEYKPTVRLATRDDVPRAVRTLAAAFADYPATRHTVDPDRHIERVTELQELFLTRVGLDIGKVWVADDGAAVAVWTTPESVEAGAVFAEIGPRMAELSGSRLAAQQQMEGLLAPHRPKEPAWFLATVGVSPDHQGKGLGSAVVLPGVEAAERAGVPAFLETSAPRNLPFYERLGFTVTADVEVPEGPRTWCMTRKPGA
NFAT-GFP ASSAY: Raji [1]: + (refer to approximately 5%, 10%, 20%, 30%, 40% and 50% GFP positive cells)
NFAT-GFP ASSAY: Nalm6 [2]: +/- (refer to approximately 5%, 10%, 20%, 30%, 40% and 50% GFP positive cells)
NFAT-GFP ASSAY: L363 [3]: + (refer to approximately 5%, 10%, 20%, 30%, 40% and 50% GFP positive cells)

B5: 22021 (protein)
chain: MALPVTALLLPLALLLHAARPQLQLQESGPGLVKPSETLSLTCTVSGDSISSGDYYWGWIRQPPGKGLEWIGHIYYSGVTYYNPSLKSRVTISVDTSRNQFSLKLSSVTAADTAVYYCTREDSSNWRSRGQGTLVTVSSLESGGGGSFEEVQLLESGGGLVQPGGSLRLSCAASGFTFSSYAMSWVRQAPGKGLEWVSSISGSGDYIYYADSVKGRFTISRDISKNTLYLQMNSLRAEDTAVYYCAKEGTGANSSLADYRGQGTLVTVSSTRIQNPDPAVYQLRDSKSSDKSVCLFTDFDSQTNVSQSKDSDVYITDKCVLDMRSMDFKSNSAVAWSNKSDFACANAFNNSIIPEDTFFPSPESSCDVKLVEKSFETDTNLNFQNLSVIGFRILLLKVAGFNLLMTLRLWSSRAKRSGSGVKQTLNFDLLKLAGDVESNPGPSRGHMTEYKPTVRLATRDDVPRAVRTLAAAFADYPATRHTVDPDRHIERVTELQELFLTRVGLDIGKVWVADDGAAVAVWTTPESVEAGAVFAEIGPRMAELSGSRLAAQQQMEGLLAPHRPKEPAWFLATVGVSPDHQGKGLGSAVVLPGVEAAERAGVPAFLETSAPRNLPFYERLGFTVTADVEVPEGPRTWCMTRKPGA
NFAT-GFP ASSAY: Raji [1]: Raji (+/-), Nalm6 (+/-), L363 (+/-) (refer to approximately 5%, 10%, 20%, 30%, 40% and 50% GFP positive cells)
NFAT-GFP ASSAY: Nalm6 [2]: Raji (+/-), Nalm6 (+/-), L363 (+/-) (refer to approximately 5%, 10%, 20%, 30%, 40% and 50% GFP positive cells)
NFAT-GFP ASSAY: L363 [3]: Raji (+/-), Nalm6 (+/-), L363 (+/-) (refer to approximately 5%, 10%, 20%, 30%, 40% and 50% GFP positive cells)

B6: 22035 (protein)
chain: MALPVTALLLPLALLLHAARPQLQLQESGPGLVKPSETLSLTCTVSGDSISSGDYYWGWIRQPPGKGLEWIGHIYYSGVTYYNPSLKSRVTISVDTSRNQFSLKLSSVTAADTAVYYCTREDSSNWRSRGQGTLVTVSSLDSGGGGSFEQLQLQESGPGLVKPSETLSLTCTVSGGSISSGDYYWGWIRQPPGKGLEWIGHIYYSGATYYNPSLKSRVTISVDTSRNQFSLKLSSVTAADTAVYYCTRDDSSNWRSRGQGTLVTVSSTRIQNPDPAVYQLRDSKSSDKSVCLFTDFDSQTNVSQSKDSDVYITDKTVLDMRSMDFKSNSAVAWSNKSDFACANAFNNSIIPEDTFFPSPESSCDVKLVEKSFETDTNLNFQNLSVIGFRILLLKVAGFNLLMTLRLWSSRAKRSGSGVKQTLNFDLLKLAGDVESNPGPSRGHMTEYKPTVRLATRDDVPRAVRTLAAAFADYPATRHTVDPDRHIERVTELQELFLTRVGLDIGKVWVADDGAAVAVWTTPESVEAGAVFAEIGPRMAELSGSRLAAQQQMEGLLAPHRPKEPAWFLATVGVSPDHQGKGLGSAVVLPGVEAAERAGVPAFLETSAPRNLPFYERLGFTVTADVEVPEGPRTWCMTRKPGA
NFAT-GFP ASSAY: Raji [1]: Raji (+/-), Nalm6 (+/-), L363 (+/-) (refer to approximately 5%, 10%, 20%, 30%, 40% and 50% GFP positive cells)
NFAT-GFP ASSAY: Nalm6 [2]: Raji (+/-), Nalm6 (+/-), L363 (+/-) (refer to approximately 5%, 10%, 20%, 30%, 40% and 50% GFP positive cells)
NFAT-GFP ASSAY: L363 [3]: Raji (+/-), Nalm6 (+/-), L363 (+/-) (refer to approximately 5%, 10%, 20%, 30%, 40% and 50% GFP positive cells)

— US20230212319A1, “NOVEL ANTIGEN BINDING DOMAINS AND SYNTHETIC ANTIGEN RECEPTORS INCORPORATING THE SAME” (University of Southern California, priority 2020, published 2023)
